First the molecules themselves.
T1: active BoNT/G holotoxin (Clostridium botulinum, UniProt Q60393 2-1297)
T1 sequence: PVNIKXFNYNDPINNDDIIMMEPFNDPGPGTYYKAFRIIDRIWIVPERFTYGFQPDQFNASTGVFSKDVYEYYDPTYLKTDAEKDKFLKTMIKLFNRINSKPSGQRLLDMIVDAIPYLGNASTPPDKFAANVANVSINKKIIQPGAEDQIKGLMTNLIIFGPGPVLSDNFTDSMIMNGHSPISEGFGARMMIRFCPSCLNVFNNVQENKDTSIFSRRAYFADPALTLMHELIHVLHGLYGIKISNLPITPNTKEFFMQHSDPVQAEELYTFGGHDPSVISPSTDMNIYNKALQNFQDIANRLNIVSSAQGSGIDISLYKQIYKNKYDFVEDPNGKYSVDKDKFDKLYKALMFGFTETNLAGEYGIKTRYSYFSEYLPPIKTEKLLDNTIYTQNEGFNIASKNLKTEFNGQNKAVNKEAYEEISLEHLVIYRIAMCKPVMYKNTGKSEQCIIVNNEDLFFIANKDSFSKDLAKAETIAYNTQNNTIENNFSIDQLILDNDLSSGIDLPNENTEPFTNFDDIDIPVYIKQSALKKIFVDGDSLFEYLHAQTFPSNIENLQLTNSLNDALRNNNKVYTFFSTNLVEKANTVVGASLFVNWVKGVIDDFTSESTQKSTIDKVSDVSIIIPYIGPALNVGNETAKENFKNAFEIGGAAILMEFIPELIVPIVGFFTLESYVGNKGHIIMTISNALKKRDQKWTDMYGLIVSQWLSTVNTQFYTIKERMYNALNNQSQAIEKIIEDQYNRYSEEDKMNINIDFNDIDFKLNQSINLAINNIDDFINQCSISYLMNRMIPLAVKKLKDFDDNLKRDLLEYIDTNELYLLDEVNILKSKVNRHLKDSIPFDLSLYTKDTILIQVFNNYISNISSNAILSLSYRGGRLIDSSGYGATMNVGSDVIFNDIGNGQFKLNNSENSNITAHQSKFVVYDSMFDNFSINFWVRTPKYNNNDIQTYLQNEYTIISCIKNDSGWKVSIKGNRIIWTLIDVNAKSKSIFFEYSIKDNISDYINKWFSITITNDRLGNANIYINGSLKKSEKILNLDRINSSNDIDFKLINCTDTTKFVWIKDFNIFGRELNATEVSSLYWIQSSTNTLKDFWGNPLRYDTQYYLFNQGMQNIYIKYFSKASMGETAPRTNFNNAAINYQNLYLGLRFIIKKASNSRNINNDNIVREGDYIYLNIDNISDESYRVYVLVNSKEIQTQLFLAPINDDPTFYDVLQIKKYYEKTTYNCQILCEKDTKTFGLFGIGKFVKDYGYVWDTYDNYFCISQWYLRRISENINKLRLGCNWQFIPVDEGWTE

T2: inactive BoNT/G (BoNT/Gi) (Clostridium botulinum, UniProt Q60393 1-1297)
T2 sequence: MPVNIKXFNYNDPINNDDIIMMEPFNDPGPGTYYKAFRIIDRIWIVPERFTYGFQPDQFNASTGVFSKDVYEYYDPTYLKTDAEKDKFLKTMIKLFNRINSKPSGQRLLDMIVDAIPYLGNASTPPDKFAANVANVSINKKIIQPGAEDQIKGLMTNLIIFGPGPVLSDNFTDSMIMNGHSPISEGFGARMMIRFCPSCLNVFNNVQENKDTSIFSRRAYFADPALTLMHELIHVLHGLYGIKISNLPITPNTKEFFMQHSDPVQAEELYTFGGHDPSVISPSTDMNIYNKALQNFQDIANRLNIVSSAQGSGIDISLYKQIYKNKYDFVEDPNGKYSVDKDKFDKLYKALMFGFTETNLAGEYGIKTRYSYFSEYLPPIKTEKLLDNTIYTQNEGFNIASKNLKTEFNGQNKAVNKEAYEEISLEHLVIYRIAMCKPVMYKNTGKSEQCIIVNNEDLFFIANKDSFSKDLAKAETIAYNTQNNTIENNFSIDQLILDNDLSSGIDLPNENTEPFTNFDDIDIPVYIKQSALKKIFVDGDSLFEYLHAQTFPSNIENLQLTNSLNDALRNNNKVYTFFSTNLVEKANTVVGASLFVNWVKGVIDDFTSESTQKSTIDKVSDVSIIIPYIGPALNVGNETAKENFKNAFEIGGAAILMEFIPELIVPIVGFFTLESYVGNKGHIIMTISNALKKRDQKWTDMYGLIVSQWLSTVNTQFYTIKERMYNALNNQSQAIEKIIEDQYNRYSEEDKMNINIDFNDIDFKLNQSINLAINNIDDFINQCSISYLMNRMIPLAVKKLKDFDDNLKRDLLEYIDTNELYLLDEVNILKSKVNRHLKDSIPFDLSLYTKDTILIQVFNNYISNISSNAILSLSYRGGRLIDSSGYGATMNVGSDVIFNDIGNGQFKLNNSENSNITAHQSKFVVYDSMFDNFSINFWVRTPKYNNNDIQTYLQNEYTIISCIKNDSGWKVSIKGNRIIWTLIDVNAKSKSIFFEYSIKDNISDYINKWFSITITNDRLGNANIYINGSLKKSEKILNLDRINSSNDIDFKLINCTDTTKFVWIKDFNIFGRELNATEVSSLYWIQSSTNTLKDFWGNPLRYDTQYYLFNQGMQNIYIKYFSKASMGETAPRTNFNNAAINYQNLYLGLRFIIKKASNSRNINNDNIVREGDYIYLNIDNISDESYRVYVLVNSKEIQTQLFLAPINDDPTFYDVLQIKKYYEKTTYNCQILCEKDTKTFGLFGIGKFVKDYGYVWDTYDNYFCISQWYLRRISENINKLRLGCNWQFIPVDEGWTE

B1: 6G7.1 IgG (antibody, V domains shown)
VH: DVQLQESGPELVKPGASVKVSCKASDYSFTDYNIYWVKQSHGKSLEWIGYIDPYNGGTSYNQKFKGKATLTVDKSSSTAFMYLNSLTSEDSAVYYCALYGYDPDYIDYWGQGTTLTVSS
VL: QIVLTQSPAIMSASPGEKVTITCSASSSVSYLHWFQQKPGTSPKLWIYSTSNLASGVPARFSGSGSGTSYSLTISRMEAEDAATYYCQQRSSYPYTFGGGTKLEIKA
B2: hu6G6 IgG (antibody, V domains shown)
VH: QVQLVQSGAEVKKPGASVKLSCKASGFNIKDTYMHWVRQAPGQGLEWIGRIDPANGNTKYDPKFQGRATITADTSINTAYLELSRLRSDDTAVYYCASGPNYYGTTWFAYWGQGTTVTVSS
VL: EIVLTQSPSTLSASVGDRVTITCRASHGISNYLAWYQQKPGRAPKLLIYKASTLHIGVPSRFSGSGSGTEFALTISSLQPDDFSTYYCQQYNSYLPHTFGQGTRLEIKR
B3: Hu6G6.2 IgG (antibody, V domains shown)
VH: B2 VH with A54E, D73Y, T74K, T78R
VL: B2 VL
B4: Hu6G11.1 IgG (antibody, V domains shown)
VH: QVQLVQSGAEVAKPGASVKMSCKASGYTFTSYWMHWVRQAPGQGLEWIGYINPSTGYTEYNQKFKDRATLTADKSKSTAYMELSSLRSEDTAVYYCARGYFSFAYWGQGTLVTVSS
VL: DIVMTQSPSSLSASVRDRVTITCQASHDIKNFLNWFQQKPGKAPKLLVYDASYLQVGVPSRFSASGYGTEFTLTISSLQPEDFATYYCQQANSFPRTFGQGTKVEIKR
B5: hu6G11 IgG (antibody, V domains shown)
VH: B4 VH with K76T
VL: B4 VL with Y53N
B6: Hu6G11.2 IgG (antibody, V domains shown)
VH: B4 VH
VL: B4 VL with Y53H
B7: Hu6G7.1 IgG (antibody, V domains shown)
VH: QVQLVQSGAEVKKPGASVKVSCKASDYSFTDYNIYWVRQTPGQGLEWIGYIDPYNGGTSYNQKFKGRATLTVDKSISTAYMELSRLRSDDTAVYYCALYGYDPDYIDYWGQGTTLTVSS
VL: DIVLTQSPASMAVSPGQRVTITCSASSSVSYLHWFQQKPGQSPKLWIYSTSNLASGVPARFSGSGSGTDYTLTINPMEAEDTATYYCQQRSSYPYTFGQGTKLEIKR
B8: Hu6G9.1 IgG (antibody, V domains shown)
VH: QVQLVQSGAEVKKPGASVKMSCKASGYTFTSYWMHWVRQAPGQGLEWVGYINPSTGYTEYNQKFKDRATLTADKSTSTAYMELRSLRSDDTAVYYCARGGNYVDYWGQGTTLTVSS
VL: DIQMTQSPSTLSASVGERVTITCRASHGISSWLAWYQQKPGKAPKRLIYAVSTLQTGVPSRFSDSGSGTDLTLTINSLQPEDFATYYCQDLNSYPLSFGGGTKVEIKR
B9: 6G10 IgG (antibody, V domains shown)
VH: EVQLQQSGPELVKPGASVKISCKASGYSFTGYFMHWVKQSHVKSLEWIGRINPYNGDIIYNQNFKDKASLTVDKSSSTAYMELHSLTSEDSAVYYCASLFGLYYFDYWGQGTTLTVSS
VL: EIVLTQSPAIMSASPGEKVTMTCSASSSVSYMHWYQQKSGTSPKRWIYDTSKLASGVPARFSGSGSGTSYSLTISSMEAEDAATYYCQQWSSNPLTFGAGTKLELKR
B10: 6G9 IgG (antibody, V domains shown)
VH: EVQLQQSGDDLVKPGASVKMSCKASGYTFTSYWMHWVKQRPGQGLEWIGYINPSTGYTEYNQKFKDKATLTADKSSSTAYMQLSSLTSEDSAVYYCARGGNYVDYWGQGTTLTVSS
VL: EIVLTQSPAIMSASPGEKVTISCSASSSVSYMYWYQQKPGSSPKPWIYRTSNLASGVPARFSGSGSGTSYSLTISSMEAEDAATYYCQQWSSNPYTFGGGTKLEIKR
B11: Hu6G10 scFv (scFv, V domains shown)
VH: QVQLVQSGAEVKKPGATVKISCKASGYSFTGYFMHWVRQAPGKGLEWIGRINPYNGDIIYNQNFKDRATLTVDKSTSTAYMELSSLRSEDTAVYYCASLFGLYYFDYWGQGTTLTVSS
VL: DVVMTQSPSSVSASVGDRVTITCRASQRISNHLNWYQQKPGKAPKRLIYAASSLESGVPSRFSGSGSGTEFTLTISSLQPEDFATYFCLQHNSYPYTFGQGTKVEIKR
B12: Hu6G11.3 scFv (scFv, V domains shown)
VH: B4 VH with K76T
VL: EIVLTQSPSTLSASIGDRVTITCRASEGIYHWLAWYQQKPGKAPKLLIYKASSLASGAPSRFSGSGSGTDFSLTISSLQPEDSATYFCQQAHSFPPTFGGGTKVDIKR
B13: Hu6G11.2 scFv (scFv, V domains shown)
VH: B4 VH
VL: B4 VL with Y53H
B14: Hu6G11.1 scFv (scFv, V domains shown)
VH: B4 VH
VL: B4 VL

Positions count from the first letter of the chain named.

In one assay the target is T1, active BoNT/G holotoxin. As to the kind of experiment: KinExA, IgG. Background: In KinExA the mixture passes briefly over coated beads that capture the unbound partner.
B1 had a Kd of 26.6 pM.

Turning to B2, the Kd is 8370 pM.

With B3, binding was put at a Kd of 42.2 pM. This Kd lies about 200-fold lower than the previous one.

B4 registered a Kd of 101 pM.

Consider B5, for which binding was put at a Kd of 531 pM. This Kd is about 5.3-fold higher than that of the molecule before.

B6: the Kd is 48 pM. This Kd is about 11-fold lower than that of the molecule before.

B7 showed a Kd of 1190 pM.

The molecule B8 yielded a Kd of 27.5 pM.

In the case of B9, the Kd is 330 pM. Against the preceding molecule, the Kd is about 12-fold higher.

In turn, B10 came in with a Kd of 1590 pM.

A further assay addresses T2, inactive BoNT/G (BoNT/Gi). The assay can be described thus: FACS, scFv on yeast. (A flow cytometer gives signals particle by particle.)
For the molecule B11, binding was characterised by a dissociation constant (Kd) of 520 pM.

B12 returned a Kd of 320 pM.

B13 returned a Kd of 560 pM.

In turn, B14 yielded a Kd of 320 pM.

By Kd is commonly meant the constant that tells how readily two partners part at equilibrium. A low value points to tighter binding.
